Measured values taken from patent US20260242478A1 (published 2026).

Tests used:
[1] = molecular target: T1, Anti-CD28 Fab (SEQ ID NOs: 696, 697); assay: phage binding ELISA on captured anti-CD28 Fab; competitor: CD28 antigen pre-incubated in the well;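 also: clonal phage supernatants added briefly to wells preblocked with or without CD28, bound phage detected through an HRP-linked anti-M13 antibody, wells with blocking buffer alone as comparison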
T1 construct: Biotinylated and captured on neutravidin coated plates in the phage ELISA
T1 sequence (VH, as listed by the source, chain 1 of 2): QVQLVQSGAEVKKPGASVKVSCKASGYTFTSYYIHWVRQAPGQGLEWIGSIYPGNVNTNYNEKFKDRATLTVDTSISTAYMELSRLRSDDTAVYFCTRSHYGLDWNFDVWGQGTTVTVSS
T1 sequence (VL, as listed by the source, chain 2 of 2): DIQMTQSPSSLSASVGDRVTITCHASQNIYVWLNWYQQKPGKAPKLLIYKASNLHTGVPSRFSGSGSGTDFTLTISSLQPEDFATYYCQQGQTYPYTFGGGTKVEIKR
Description: (§1) Clonal phage were harvested as crude supematants and screened via standard ELISAs. […] Prior to the addition of clonal phage, wells were incubated with blocking buffer and CD28 antigen or blocking buffer alone. Without washing or aspirating, clonal phage supematants were then added to the wells and incubated for a short time. Wells were then washed followed by detection of bound phage using a horse radish conjugated anti-M13 antibody. Clonal phage of interest were then sent for sequence analysis.

[2] = molecular target: T1, Anti-CD28 Fab (SEQ ID NOs: 696, 697); assay: phage binding ELISA; biotinylated anti-CD28 Fab on neutravidin plate, bound phage detected with anti-M13-HRP;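 also: clonal phage tested as crude supernatants, given a short incubation in the Fab-captured wells before bound phage were read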
Description: as §1

[3] = molecular target: Anti-CD28 Fab (SEQ ID NOs: 696, 697); assay: phage binding ELISA; Fab-coated wells pre-incubated with saturating CD28 antigen as competitor, anti-M13 HRP detection
Target sequence in this assay (VH, as listed by the source, chain 1 of 2): as the sequence (VH, as listed by the source, chain 1 of 2) above
Target sequence in this assay (VL, as listed by the source, chain 2 of 2): as the sequence (VL, as listed by the source, chain 2 of 2) above
Description: (§2) Clonal phage were harvested as crude supematants and screened via standard ELISAs. […] Prior to the addition of clonal phage, wells were incubated with blocking buffer and CD28 antigen or blocking buffer alone. Without washing or aspirating, clonal phage supematants were then added to the wells and incubated for a short time. Wells were then washed followed by detection of bound phage using a horse radish conjugated anti-M13 antibody.

[4] = molecular target: Anti-CD28 Fab (SEQ ID NOs: 696, 697); assay: phage binding ELISA; biotinylated anti-CD28 Fab on neutravidin plate, clonal phage supernatant, anti-M13 HRP detection;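 also: wells pretreated with blocking buffer, either plus or minus CD28 antigen, then given crude phage supernatant briefly without washing in between, then washed before anti-M13 HRP readout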
Target sequence in this assay (VH, as listed by the source, chain 1 of 2): as the sequence (VH, as listed by the source, chain 1 of 2) above
Target sequence in this assay (VL, as listed by the source, chain 2 of 2): as the sequence (VL, as listed by the source, chain 2 of 2) above
Description: as §2

| Binder | Anti-CD28 Fab signal in the presence of CD28 [1] | Anti-CD28 Fab (SEQ ID NOs: 696, 697) signal [2] | Anti-CD28 Fab signal in the presence of CD28 [3] | Anti-CD28 Fab (SEQ ID NOs: 696, 697) signal [4] |
| --- | --- | --- | --- | --- |
| QCAAGAMWTWPACF (tested as crude phage supernatant) [Phage-1537] | 0.06 | 1.54 |  |  |
| TCAAGAAWEWPICF (tested as crude phage supernatant) [Phage-1538] | 0.06 | 1.54 |  |  |
| TCAAGAMWNWPQCY (tested as crude phage supernatant) [Phage-1539] | 0.07 | 1.54 |  |  |
| SCSAGAMYPWPMCL (tested as crude phage supernatant) [Phage-1540] | 0.06 | 1.53 |  |  |
| TCAAGASWEWPLCF (tested as crude phage supernatant) [Phage-1541] | 0.08 | 1.52 |  |  |
| TCSAGATYVWPDCF (tested as crude phage supernatant) [Phage-1542] | 0.09 | 1.52 |  |  |
| TCEAVFIYSWPFCL (tested as crude phage supernatant) [Phage-1543] | 0.08 | 1.52 |  |  |
| LCSAGAMWQWPTCL (tested as crude phage supernatant) [Phage-1544] | 0.05 | 1.51 |  |  |
| LCAEGADYPWPMCL (tested as crude phage supernatant) [Phage-1545] | 0.08 | 1.51 |  |  |
| TCAAGATWDWPLCF (tested as crude phage supernatant) [Phage-1546] | 0.06 | 1.51 |  |  |
| SCSAGASLQLSQCF (also called Peptide-92 library clone) [Phage-1576] |  |  | 0.05 | 1.41 |
| RCSFRFITLAEACV (also called Peptide-92 library clone) [Phage-1577] |  |  | 0.08 | 1.41 |
| TCSAGAHYPWPICL (also called Peptide-92 library clone) [Phage-1578] |  |  | 0.08 | 1.41 |
| TCAAGAQFAWPLCL (also called Peptide-92 library clone) [Phage-1579] |  |  | 0.07 | 1.41 |
| LCSAGFLFQWSTCL (also called Peptide-92 library clone) [Phage-1580] |  |  | 0.06 | 1.41 |
| RCAAGFHYSWPNCF (also called Peptide-92 library clone) [Phage-1581] |  |  | 0.06 | 1.41 |
| GCAAGASYPWPACL (also called Peptide-92 library clone) [Phage-1582] |  |  | 0.06 | 1.41 |
| PCAAGAMWPWPVCL (also called Peptide-92 library clone) [Phage-1583] |  |  | 0.06 | 1.41 |
| TCSAGATYSWPACL (also called Peptide-92 library clone) [Phage-1584] |  |  | 0.06 | 1.41 |
| TCAAGASWNWPACE (Read from the row with '-' = Peptide-92 residue: TCAAGASWNWPACE; also called Peptide-92 library clone) [Phage-1585] |  |  | 0.07 | 1.41 |
| LCAAGAHYSWPACF (also called Peptide-92 library clone) [Phage-1586] |  |  | 0.09 | 1.41 |
